Values of other authors in PMC2289845.

Biological target: KIX KIX (UniProt P45481)
Sequence of UniProt P45481 (P45481 586-665): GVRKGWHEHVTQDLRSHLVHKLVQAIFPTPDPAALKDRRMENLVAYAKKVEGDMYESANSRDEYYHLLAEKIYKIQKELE

pKID KID (from UniProt P15337)
Kd: 1300 nM
